The results in this text go back to the supplement of paper PMC11811203.

Sequences and labels used below:
B1: THAP1; numbered along this chain (parent)
chain: MVQSCSAYGCKNRYDKDKPVSFHKFPLTRPSLCKEWEAAVRRKNFKPTKYSSICSEHFTPDCFKRECNNKLLKENAVPTIFLCTEPHDKKEDLLEPQEQLPPPPLPPPVSQVDAAIGLLMPPLQTPVNLSVFCDHNYTVEDTMHQRKRIHQLEQQVEKLRKKLKTAQQRCRRQERQLEKLKEVVHFQKEKDDVSERGYVILPNDYFEIVEVPA

Variants of B1 are the subject of the series. The experiment in a line: THAP1 transcriptional activity (GFP+/GFP- enrichment relative to wild-type constructs) (ratio to WT); higher = more THAP1 activity (PSMB5 reporter activation). The note with it: with PSMB5 promoter-GFP reporter. In a few lines: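 Variants were counted by Illumina sequencing of genomic DNA amplicons from BFP+ cells sorted into GFP-bright and GFP-dim bins five days after lentiviral transduction, in duplicate at MOI ~0.3. The library changed each of residues 2–213 of human THAP1 to all 20 amino acids and was introduced into THAP1-knockout HEK-293T cells with mClover3 knocked in at endogenous PSMB5. Activity equals the replicate-mean bright/dim read fold change over the mean of wild-type synonymous constructs.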
MVQSCSAYGCKNRYDKDKPVSFHKFPLTRPSLCKEWEAAVRRKNFKPTKYSSICGEHFTPDCFKRECNNKLLKENAVPTIFLCTEPHDKKEDLLEPQEQLPPPPLPPPVSQVDAAIGLLMPPLQTPVNLSVFCDHNYTVEDTMHQRKRIHQLEQQVEKLRKKLKTAQQRCRRQERQLEKLKEVVHFQKEKDDVSERGYVILPNDYFEIVEVPA [S55G]: the THAP1 transcriptional activity was 0.185. MVQSCSAYGCKNRYDKDKPVSFHKFPLTRPSLCKEWEAAVRRKNFKPTKYSSICSEHFTPDCFKRECNNKLLKENAVPTIFLCTEPHDKKEDLLEPQEQLPPPPLPPPVSQVDAAIGLLMPPLQTPVNLSVFCDHNYTVEDTMHQRKRIHQLEQQVEKLRKKLKTAQQRCRRQERQLEKLKEVVHFQHEKDDVSERGYVILPNDYFEIVEVPA [K188H]: the THAP1 transcriptional activity was 0.646. The same measure for MVQSCSAYGCKNRYDKDKPVSFHKFPLTRPSLCKEWEAAVRRKNFKPTKYSSICSEHFTPDCFKRECNNKLLKENAVPTIFLCTEPHDKKEDLLEPQEQLPPPPLPPPVSQVDAAIGLLMPPLQTPVNLSVFCDHNYTVEDTMHQRKRIHQLEQQVEKLRKKLKTAQQRCRRQERQNEKLKEVVHFQKEKDDVSERGYVILPNDYFEIVEVPA [L177N]: 0.361. On to MVQSCSAYGCKNRYDKDKPVSFHKFPLTRPSLCKEWEAAVRRKNFKPTKYSSICSEHFTPDCFKRECNNKLLKENAVPTIFLCTEPHDKKEDLLEPQEQLPPPPLPPPVSQVDAAIGLLMPPLQTPVNLSVFCDHNYTVEDTMQQRKRIHQLEQQVEKLRKKLKTAQQRCRRQERQLEKLKEVVHFQKEKDDVSERGYVILPNDYFEIVEVPA [H144Q], for which the THAP1 transcriptional activity came to 0.814. With MVQSCSAYGCKNRYDKDKPVSQHKFPLTRPSLCKEWEAAVRRKNFKPTKYSSICSEHFTPDCFKRECNNKLLKENAVPTIFLCTEPHDKKEDLLEPQEQLPPPPLPPPVSQVDAAIGLLMPPLQTPVNLSVFCDHNYTVEDTMHQRKRIHQLEQQVEKLRKKLKTAQQRCRRQERQLEKLKEVVHFQKEKDDVSERGYVILPNDYFEIVEVPA [F22Q], the THAP1 transcriptional activity was found to be 0.121. MVQSCSAYGCKNRYDKDKPVSFHKFPLTKPSLCKEWEAAVRRKNFKPTKYSSICSEHFTPDCFKRECNNKLLKENAVPTIFLCTEPHDKKEDLLEPQEQLPPPPLPPPVSQVDAAIGLLMPPLQTPVNLSVFCDHNYTVEDTMHQRKRIHQLEQQVEKLRKKLKTAQQRCRRQERQLEKLKEVVHFQKEKDDVSERGYVILPNDYFEIVEVPA [R29K]: the THAP1 transcriptional activity was determined as 0.357. As for MVQSCSAYGCKNRYDKDKPVSFHKFPLTRPSLCKEWEAAVRRKNFKPTKYSSICSEHFTPDCFKRECNNKLQKENAVPTIFLCTEPHDKKEDLLEPQEQLPPPPLPPPVSQVDAAIGLLMPPLQTPVNLSVFCDHNYTVEDTMHQRKRIHQLEQQVEKLRKKLKTAQQRCRRQERQLEKLKEVVHFQKEKDDVSERGYVILPNDYFEIVEVPA [L72Q], the THAP1 transcriptional activity is 0.163.

For the variant MVQSCSAYGCKNRYDKDKPVSFHKFPLTRPSLCKEWEAAVRRKNFKPTKYSSICSEHFTPDCFCRECNNKLLKENAVPTIFLCTEPHDKKEDLLEPQEQLPPPPLPPPVSQVDAAIGLLMPPLQTPVNLSVFCDHNYTVEDTMHQRKRIHQLEQQVEKLRKKLKTAQQRCRRQERQLEKLKEVVHFQKEKDDVSERGYVILPNDYFEIVEVPA [K64C], the THAP1 transcriptional activity came to 0.0975. As to MVQSCSAYGCKNRYDKDKPVSFHKFPLTRPSLCKEWEAAVRRKNFKPTKYSSICSEHFTPDCFTRECNNKLLKENAVPTIFLCTEPHDKKEDLLEPQEQLPPPPLPPPVSQVDAAIGLLMPPLQTPVNLSVFCDHNYTVEDTMHQRKRIHQLEQQVEKLRKKLKTAQQRCRRQERQLEKLKEVVHFQKEKDDVSERGYVILPNDYFEIVEVPA [K64T], the THAP1 transcriptional activity was determined as 0.115.

For the variant MVQSCSAYGCKNRYDKDKPVSFHKFPPTRPSLCKEWEAAVRRKNFKPTKYSSICSEHFTPDCFKRECNNKLLKENAVPTIFLCTEPHDKKEDLLEPQEQLPPPPLPPPVSQVDAAIGLLMPPLQTPVNLSVFCDHNYTVEDTMHQRKRIHQLEQQVEKLRKKLKTAQQRCRRQERQLEKLKEVVHFQKEKDDVSERGYVILPNDYFEIVEVPA [L27P], the THAP1 transcriptional activity worked out at 0.103. As for MVQSCSAYGCKNRYDKDKPVSFHKFPLTRPSLCKEWEAAVRRKNFKPTKYSSICSEHFTPDCFKRECNNKLLKENAVPTIFLCTEPHDKKEDLLEPQEQLPPPPLPPPVSQVDAAIGLLMPPLQTPVNLSVFCDHNKTVEDTMHQRKRIHQLEQQVEKLRKKLKTAQQRCRRQERQLEKLKEVVHFQKEKDDVSERGYVILPNDYFEIVEVPA [Y137K], the THAP1 transcriptional activity is 0.211. MVQSCSAYGCKNRYDKDKPVSFHKFPLTRPSLCKEWEAAVRRKNFKPTKYSSICSEHFTPDCFKRECNNKLLKENAVPTIFLCTEPHDKKEDLLEPQEQLPPPPLPPPVSQVDAAIGLLMPPLQTPVNLSVFCDHNYTVEDTMHQRKRIHQLEQQVEKLRKKLKTAQQRCRRQERNLEKLKEVVHFQKEKDDVSERGYVILPNDYFEIVEVPA [Q176N]: the THAP1 transcriptional activity stood at 0.518. For MVQSCSAYGCKNRYDKDKPVSFHKFPLTRPSLCKEWEAAVRRKNFKPTKYSSICSEHFTPDCFKRECNNKLLKENAVPTIFLCTEPHDKKEDLLEPQEQLPPPPLPPPVSQVDAAIGLLMPPLQTPVNLSVFCDHNYTVEDTMHQRKRGHQLEQQVEKLRKKLKTAQQRCRRQERQLEKLKEVVHFQKEKDDVSERGYVILPNDYFEIVEVPA [I149G], the THAP1 transcriptional activity was 0.197. Regarding MVQSCSAYGCKNRYDKDKPVSFHKFPLTRPSLCKEWEAAVRRKNFKPTKYSSICSEHFTPDCFKRECNNKLLKENAVPTIFLCTEPHDKKEDLLEPQEQLPPPPLPPPVSQVDAAIGLLMPPLQTPVNLSVFCDHNYTVEDSMHQRKRIHQLEQQVEKLRKKLKTAQQRCRRQERQLEKLKEVVHFQKEKDDVSERGYVILPNDYFEIVEVPA [T142S], the THAP1 transcriptional activity is 0.66.
